# Test results as given in PMC6479881, “Structural Comparison of Enterococcus faecalis and Human Thymidylate Synthase Complexes with the Substrate dUMP and Its Analogue FdUMP Provides Hints about Enzyme Conformational Variabilities” (Molecules, 2019).
# B1: human thymidylate synthase (enzyme)
# chain: MPVAGSELPRRPLPPAAQERDAEPRPPHGELQYLGQIQHILRCGVRKDDRTGTGTLSVFGMQARYSLRDEFPLLTTKRVFWKGVLEELLWFIKGSTNAKELSSKGVKIWDANGSRDFLDSLGFSTREEGDLGPVYGFQWRHFGAEYRDMESDYSGQGVDQLQRVIDTIKTNPDDRRIIMCAWNPRDLPLMALPPCHALCQFYVVNSELSCQLYQRSGDMGLGVPFNIASYALLTYMIAHITGLKPGDFIHTLGDAHIYLNHIEPLKIQLQREPRPFPKLRILRKVEKIDDFKAEDFQIEGYNPHPTIKMEMAV
# notes: Thymidylate synthase (EC 2.1.1.45), human, wild type; expressed from pQE-80L with a not-cleavable N-terminal His6-tag (twelve tag residues); the first twenty-five N-terminal residues and the tag were not traced in the structures; also called hTS; Human TS; source: E. coli BL21(DE3), purified (HisTrap HP); not shown: His6, N-terminal, kept
# B2: Enterococcus faecalis thymidylate synthase (enzyme)
# chain: MEEAYLALGKKILEEGHFKEDRTGTGTYSLFGYQMRFDLAKGFPLLTTKRVPFGLIKSELLWFLKGDTNIRYLLERNNHIWDEWAFERYVKSADYQGPDMTDFGHRVLQDPAFAEQYKEEHQKFCDAILNDAEFAEKYGELGNIYGAQWRHWETKDGSFIDQLANVIEMIKTNPDSRRLIVSAWNPEDVPSMALPPCHTMFQFYVNEGKLSCQLYQRSADVFLGVPFNIASYALLTHLIAHETGLEVGEFVHTLGDAHLYQNHVEQMQEQLSREVRSFPTLVLNPDKASVFDFDMEDIKVEGYDPHPTIKAPIAV
# modifications: dUMP complex: Cys197 as S,S-(2-hydroxylethyl)thiocysteine (CME197) in subunits B and D, oxidized to sulfenic acid (S-oxycysteine, CSX197) in subunits A and C; FdUMP complex: Cys197 thiol reactive
# notes: Thymidylate synthase (EC 2.1.1.45) of Enterococcus faecalis; The homodimer is asymmetric: 5-FTHF copurifies in one active site of each dimer; also called EfTS; TS; source: prepared according to an established procedure [5]; purified
# Key:
# [1] = target: the molecule itself; assay: crystal structure; hTS 20 mg/mL in 50 mM HEPES pH 7.5, 30 mM NaCl, 20 mM beta-mercaptoethanol, with 40 mM dUMP or 2 mM FdUMP; precipitant 27-30 % PEG4000, 30 mM ammonium sulfate, 0.1 M TRIS pH 9; room temperature; space groups C2 or I2, one and half dimer in the ASU
# [2] = target: the molecule itself; assay: crystal structure; EfTS 7 mg/mL in 25 mM phosphate buffer pH 6.8, 2 mM DTT, with 100 mM dUMP or 4 mM FdUMP; precipitant 2.2-2.5 M ammonium sulfate, 0.1 M HEPES pH 7.5; room temperature; space group P21, two enzyme dimers in the ASU
Protein,binding result [1],binding result [2]
B1,binds,–
B2,–,binds
